# Assay results as given in the Immune Epitope Database (IEDB).
# What was measured:
# HLA-A*02:01 [1] = test: IEDB peptide-MHC binding, purified MHC/competitive/fluorescence; ≥ and ≤ were set here for values at or beyond the usual limits of such assays; settings: source organism: Zaire ebolavirus
# HLA-A*24:02 = test: as above; settings: source organism: Zaire ebolavirus
# HLA-B*44:02 = test: IEDB peptide-MHC binding, purified MHC/competitive/radioactivity; filed as Kd, often an IC50 or EC50 that approximates it; ≥ and ≤ were set here for values at or beyond the usual limits of such assays
# HLA-B*44:03 = test: as above
# HLA-B*40:01 [2] = test: as above
# HLA-B*35:01 = test: as above
# HLA-B*53:01 = test: as above
# HLA-B*51:01 [3] = test: as above
# HLA-B*07:02 [4] = test: as above
# HLA-B*15:03 = test: as above
# HLA-A*24:03 = test: IEDB peptide-MHC binding, purified MHC/direct/fluorescence; filed as Kd, often an IC50 or EC50 that approximates it; ≥ and ≤ were set here for values at or beyond the usual limits of such assays
# HLA-B*08:01 [5] = test: IEDB peptide-MHC binding, purified MHC/competitive/radioactivity; filed as Kd, often an IC50 or EC50 that approximates it; ≥ and ≤ were set here for values at or beyond the usual limits of such assays
# HLA-A*02:01 [6] = test: IEDB peptide-MHC binding, purified MHC/competitive/fluorescence; filed as Kd, often an IC50 or EC50 that approximates it; ≥ and ≤ were set here for values at or beyond the usual limits of such assays; settings: source organism: Salmonella enterica subsp. enterica serovar Typhi
# HLA-A*26:01 [7] = test: as above; settings: source organism: Salmonella enterica subsp. enterica serovar Typhi
# HLA-A*02:03 = test: IEDB peptide-MHC binding, purified MHC/competitive/radioactivity; filed as Kd, often an IC50 or EC50 that approximates it; ≥ and ≤ were set here for values at or beyond the usual limits of such assays; settings: source organism: Dengue virus 2 Jamaica/1409/1983
# HLA-B*15:01 [8] = test: as above
# HLA-A*23:01 = test: as above; settings: source organism: Dengue virus 1 Brazil/97-11/1997
# HLA-A*32:01 = test: as above
# HLA-B*15:01 [9] = test: IEDB peptide-MHC binding, purified MHC/competitive/fluorescence; filed as Kd, often an IC50 or EC50 that approximates it; ≥ and ≤ were set here for values at or beyond the usual limits of such assays
# HLA-B*51:01 [10] = test: as above
# HLA-B*58:01 = test: IEDB peptide-MHC binding, purified MHC/direct/fluorescence; filed as Kd, often an IC50 or EC50 that approximates it; ≥ and ≤ were set here for values at or beyond the usual limits of such assays; settings: source organism: Yersinia pestis
# HLA-B*40:01 [11] = test: as above; settings: source organism: Yersinia pestis
# HLA-A*11:01 = test: as above; settings: source organism: Yersinia pestis
# HLA-A*02:01 [12] = test: as above; settings: source organism: Yersinia pestis
# HLA-B*27:05 = test: as above; settings: source organism: Yersinia pestis
# HLA-A*26:01 [13] = test: as above; settings: source organism: Yersinia pestis
# HLA-B*08:01 [14] = test: as above; settings: source organism: Yersinia pestis
# HLA-B*07:02 [15] = test: as above; settings: source organism: Yersinia pestis
# HLA-A*31:01 = test: as above; settings: source organism: Yersinia pestis
# HLA-A*03:01 = test: as above; settings: source organism: Yersinia pestis
# HLA-A*69:01 = test: as above; settings: source organism: Yersinia pestis
# HLA-A*01:01 [16] = test: as above; settings: source organism: Yersinia pestis
# HLA-B*15:01 [17] = test: as above; settings: source organism: Yersinia pestis
# HLA-A*01:01 [18] = test: IEDB peptide-MHC binding, purified MHC/competitive/radioactivity; filed as Kd, often an IC50 or EC50 that approximates it; ≥ and ≤ were set here for values at or beyond the usual limits of such assays
# HLA-A*30:02 = test: as above; settings: source organism: Dengue virus 4 Philippines/H241/1956
# [19] = source organism: Dengue virus 4 Dominica/814669/1981
# [20] = source organism: Dengue virus 2 Jamaica/1409/1983
# [21] = source organism: Dengue virus 1 Brazil/97-11/1997
# [22] = source organism: Vaccinia virus WR
# [23] = source organism: Dengue virus 4 Philippines/H241/1956
# [24] = source organism: Yersinia pestis
# [25] = source organism: Vaccinia virus Copenhagen
# [26] = source organism: Dengue virus 3 Martinique/1243/1999
# [27] = source organism: Dengue virus 3 Singapore/8120/1995
sequence,measurement,setting,value
AENTNTSKS,IC50,HLA-A*02:01 [1],≥ 187000 nM
same,IC50,HLA-A*24:02,≥ 534000 nM
AERIGEPDY,Kd,HLA-B*44:02; [19],203 nM
same,Kd,HLA-B*44:03; [19],797 nM
AETQHGTIV,Kd,HLA-B*44:03; [20],225 nM
same,Kd,HLA-B*40:01 [2]; [20],15.1 nM
DPASIAARGY,Kd,HLA-B*35:01; [20],5620 nM
EPGQLKLNW,Kd,HLA-B*53:01; [20],33.1 nM
EPHWIAASI,Kd,HLA-B*51:01 [3]; [21],172 nM
same,Kd,HLA-B*07:02 [4]; [21],267 nM
same,Kd,HLA-B*53:01; [21],333 nM
FARDNQISF,Kd,HLA-B*15:03; [22],0.195 nM
FFPMVTDAW,Kd,HLA-A*24:03; source organism: Vibrio parahaemolyticus,≤ 1 nM
FLFLNINHY,Kd,HLA-B*15:03; [22],6.46 nM
FLVIAINAM,Kd,HLA-B*15:03; [22],440 nM
FPTSRTTWSI,Kd,HLA-B*35:01; [23],327 nM
same,Kd,HLA-B*51:01 [3]; [23],184 nM
same,Kd,HLA-B*07:02 [4]; [23],55.5 nM
same,Kd,HLA-B*53:01; [23],16.4 nM
GPLKLFMAL,Kd,HLA-B*51:01 [3]; [20],≥ 77400 nM
same,Kd,HLA-B*08:01 [5]; [20],19.3 nM
same,Kd,HLA-B*07:02 [4]; [20],2.35 nM
same,Kd,HLA-B*53:01; [20],1010 nM
GPLRMVLAF,Kd,HLA-B*35:01; [23],1230 nM
same,Kd,HLA-B*07:02 [4]; [23],5.58 nM
same,Kd,HLA-B*53:01; [23],122 nM
HPGFTVIALF,Kd,HLA-B*35:01; [21],101 nM
same,Kd,HLA-B*53:01; [21],87.9 nM
HVAAFSSLI,Kd,HLA-A*02:01 [6],61.3 nM
same,Kd,HLA-A*26:01 [7],57.5 nM
IETLMLLALI,Kd,HLA-B*44:03; [21],1050 nM
same,Kd,HLA-B*40:01 [2]; [21],206 nM
IFVIDNVHTW,Kd,HLA-B*53:01; [23],500 nM
IKYMIGNFM,Kd,HLA-B*15:03; [22],2.15 nM
ILAAVSVSPL,Kd,HLA-A*02:03,13 nM
same,Kd,HLA-B*15:01 [8]; [20],28.9 nM
IMSLFSTSA,Kd,HLA-B*15:03; [22],7.67 nM
IPMTGPLVA,Kd,HLA-B*07:02 [4]; [20],50.7 nM
ISKNAFSCM,Kd,HLA-B*15:01 [8]; [22],78.1 nM
IVIGVGDSAL,Kd,HLA-B*15:01 [8]; [23],27.8 nM
KKNNRVLCF,Kd,HLA-B*15:03; [22],1.59 nM
KLVMAFIAF,Kd,HLA-A*23:01,4820 nM
same,Kd,HLA-A*32:01; [21],1180 nM
same,Kd,HLA-B*15:01 [8]; [21],1.39 nM
LENDEDCAHW,Kd,HLA-B*44:02; [20],103 nM
same,Kd,HLA-B*44:03; [20],103 nM
LEVNNPTPF,Kd,HLA-B*15:01 [9]; [24],98 nM
LLVQRVTSV,Kd,HLA-B*15:03; [25],285 nM
LLYMFPNLF,Kd,HLA-A*32:01; [22],89.7 nM
same,Kd,HLA-B*15:03; [22],0.109 nM
LMLVTPSMAM,Kd,HLA-B*15:01 [8]; [21],7.08 nM
LPDYGELTL,Kd,HLA-B*35:01; [23],100 nM
same,Kd,HLA-B*51:01 [3]; [23],1230 nM
same,Kd,HLA-B*07:02 [4]; [23],67.8 nM
same,Kd,HLA-B*53:01; [23],77.1 nM
LPPEKCDTLL,Kd,HLA-B*35:01; [26],5980 nM
same,Kd,HLA-B*08:01 [5]; [26],707 nM
LPVWLSYKV,Kd,HLA-B*51:01 [3]; [21],418 nM
same,Kd,HLA-B*53:01; [21],164 nM
LSIPATLFVW,Kd,HLA-B*53:01; source organism: Dengue virus 1 Singapore/S275/1990,92.8 nM
LSYGPAFIV,Kd,HLA-B*51:01 [10]; source organism: Entamoeba histolytica HM-1:IMSS,≥ 20000 nM
LTDEDKQNQ,Kd,HLA-B*58:01,≥ 20000 nM
same,Kd,HLA-B*40:01 [11],≥ 20000 nM
same,Kd,HLA-A*11:01,≥ 20000 nM
same,Kd,HLA-A*02:01 [12],≥ 20000 nM
same,Kd,HLA-B*27:05,≥ 20000 nM
same,Kd,HLA-A*26:01 [13],≥ 20000 nM
same,Kd,HLA-B*08:01 [14],≥ 20000 nM
same,Kd,HLA-B*07:02 [15],≥ 20000 nM
same,Kd,HLA-A*31:01,≥ 20000 nM
same,Kd,HLA-A*03:01,≥ 20000 nM
same,Kd,HLA-A*69:01,≥ 20000 nM
same,Kd,HLA-A*24:03; [24],≥ 20000 nM
same,Kd,HLA-A*01:01 [16],≥ 20000 nM
same,Kd,HLA-B*15:01 [17],≥ 20000 nM
MEGVFHTMW,Kd,HLA-B*44:02; [23],17.4 nM
same,Kd,HLA-B*44:03; [23],2.58 nM
MQYVPAWIV,Kd,HLA-B*51:01 [10]; source organism: Bacillus cereus 95/8201,≥ 20000 nM
NATDTWVTY,Kd,HLA-B*35:01; [21],20.9 nM
same,Kd,HLA-A*01:01 [18]; [21],144 nM
NELNYVLWE,Kd,HLA-B*44:03; [23],159 nM
PPVNDLKYSW,Kd,HLA-B*53:01; [23],96.8 nM
QKIWMAPSL,IC50,HLA-A*02:01 [1],14500 nM
same,IC50,HLA-A*24:02,≥ 92400 nM
QPFLALGFFL,Kd,HLA-B*35:01; [26],200 nM
same,Kd,HLA-B*51:01 [3]; [26],≥ 69600 nM
same,Kd,HLA-B*07:02 [4]; [26],577 nM
QPMELKYSW,Kd,HLA-B*53:01; [26],7.76 nM
RAKGSRAIWY,Kd,HLA-A*30:02,77 nM
same,Kd,HLA-B*15:01 [8]; [23],36.1 nM
RPMPGTRKVM,Kd,HLA-B*35:01; [27],8170 nM
same,Kd,HLA-B*07:02 [4]; [27],1.13 nM
RPTPTGTVM,Kd,HLA-B*35:01; [26],1430 nM
same,Kd,HLA-B*07:02 [4]; [26],1.98 nM
RSRWSRKMLM,Kd,HLA-B*07:02 [4]; [21],154 nM
RYGWSGAVF,Kd,HLA-A*24:03; source organism: Shigella sonnei Ss046,≤ 1 nM
SDTRSVNSF,Kd,HLA-B*15:03; [25],92.7 nM
SECPNERRAW,Kd,HLA-B*44:02; [23],74.7 nM
same,Kd,HLA-B*44:03; [23],56.5 nM
SEFQIYKKS,Kd,HLA-B*44:03; [20],825 nM
SIIVLFQRF,Kd,HLA-B*08:01 [5]; [22],8550 nM
same,Kd,HLA-B*15:01 [8]; [22],1.09 nM
SKSRRLNLF,Kd,HLA-B*15:03; [22],2.36 nM
SLIEVKTCLW,Kd,HLA-B*44:03; [23],2330 nM
SPGKFWNTTI,Kd,HLA-B*07:02 [4]; [21],5.6 nM
SPGTSGSPII,Kd,HLA-B*07:02 [4]; source organism: Dengue virus 2 16681-PDK53,132 nM
SPGYVLGVF,Kd,HLA-B*07:02 [4]; [19],8.71 nM
TEEIAVQNW,Kd,HLA-B*44:02; [20],15.4 nM
same,Kd,HLA-B*44:03; [20],36.8 nM
TEIASLPTYL,Kd,HLA-B*44:02; [23],34.7 nM
same,Kd,HLA-B*44:03; [23],222 nM
same,Kd,HLA-B*40:01 [2]; [23],15 nM
TQGYFPDWQNY,Kd,HLA-B*15:01 [9]; source organism: Human immunodeficiency virus 1,84.6 nM
TTGKLIWKV,IC50,HLA-A*02:01 [1],1240 nM
same,IC50,HLA-A*24:02,62700 nM
TVIDLDPIPY,Kd,HLA-A*01:01 [18]; [20],1540 nM
same,Kd,HLA-B*15:01 [8]; [20],1.83 nM
WKVLSIMAF,Kd,HLA-B*15:03; [25],9.29 nM
YVQLESRFT,IC50,HLA-A*02:01 [1],39300 nM
same,IC50,HLA-A*24:02,≥ 203000 nM
